Test results published in patent US20210395323A1.

Molecular target: TNFR2 on human cells (Kym-1 cells; human CD3+ T cells) (human) (UniProt P20333)
Assay: cell-based or functional assay

Sequence of TNFR2 on human cells (Kym-1 cells; human CD3+ T cells) (human) (P20333 23-461): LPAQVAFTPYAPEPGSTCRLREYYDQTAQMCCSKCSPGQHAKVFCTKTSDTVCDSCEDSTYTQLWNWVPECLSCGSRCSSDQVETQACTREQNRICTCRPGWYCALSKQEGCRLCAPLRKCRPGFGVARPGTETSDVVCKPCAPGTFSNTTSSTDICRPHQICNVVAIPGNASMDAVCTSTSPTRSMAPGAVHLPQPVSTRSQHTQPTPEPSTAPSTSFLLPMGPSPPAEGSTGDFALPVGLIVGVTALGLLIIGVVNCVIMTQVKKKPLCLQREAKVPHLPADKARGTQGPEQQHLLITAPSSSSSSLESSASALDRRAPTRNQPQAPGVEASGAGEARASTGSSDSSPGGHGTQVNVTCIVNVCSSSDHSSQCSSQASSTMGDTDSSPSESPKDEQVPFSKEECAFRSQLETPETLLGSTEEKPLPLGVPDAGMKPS

Substance | EC50 of Kym-1 cell viability (crystal violet assay after 16 h) [µM] | EC50 values (nM) of cell death induction using Kym-1 cells [nM]
VASP-scTNFR2 (ligand) | 7 | –
human single-chain TNF variant (D143N/A145R, scTNFR2) (from UniProt Q8HZD9 77-232) (ligand) | – | 0.347
scTNFR2-Fc-scTNFR2 (Fc fusion) | 8.5 | –
